Experimental findings from publication PMC4850456, “Phenylbutazone induces expression of MBNL1 and suppresses formation of MBNL1-CUG RNA foci in a mouse model of myotonic dystrophy” are described below.

For one data set, the target named is T1, GST-MBNL1 (1-260) (UniProt Q9NR56 1-260).
T1 sequence: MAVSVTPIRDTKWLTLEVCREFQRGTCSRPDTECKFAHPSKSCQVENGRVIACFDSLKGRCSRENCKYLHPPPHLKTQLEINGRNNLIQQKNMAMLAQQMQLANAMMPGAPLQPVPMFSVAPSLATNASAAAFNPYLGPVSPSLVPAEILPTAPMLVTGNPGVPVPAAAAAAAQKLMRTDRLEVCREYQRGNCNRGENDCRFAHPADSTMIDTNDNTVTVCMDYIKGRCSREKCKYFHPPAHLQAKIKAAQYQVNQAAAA
The data set is described as follows: EMSA; no PBZ; 10 mM Tris-HCl pH 7.5, 50 mM KCl, 1 mM DTT, room temperature 30 min, 20 ul; 6 ug protein, RNA 2.5 pmol/ul; then PBZ 15 min at room temperature. Particulars: protein: recombinant; tags: GST (N-terminal fusion); label: 5'-biotin.

For another data set, the target named is GST-PTBP1 (UniProt P26599 1-557). The description is as above. Conditions: protein: recombinant; tags: GST (pGEX-6P-1); label: 5'-biotin.
GST-PTBP1, sequence (P26599 whole entry): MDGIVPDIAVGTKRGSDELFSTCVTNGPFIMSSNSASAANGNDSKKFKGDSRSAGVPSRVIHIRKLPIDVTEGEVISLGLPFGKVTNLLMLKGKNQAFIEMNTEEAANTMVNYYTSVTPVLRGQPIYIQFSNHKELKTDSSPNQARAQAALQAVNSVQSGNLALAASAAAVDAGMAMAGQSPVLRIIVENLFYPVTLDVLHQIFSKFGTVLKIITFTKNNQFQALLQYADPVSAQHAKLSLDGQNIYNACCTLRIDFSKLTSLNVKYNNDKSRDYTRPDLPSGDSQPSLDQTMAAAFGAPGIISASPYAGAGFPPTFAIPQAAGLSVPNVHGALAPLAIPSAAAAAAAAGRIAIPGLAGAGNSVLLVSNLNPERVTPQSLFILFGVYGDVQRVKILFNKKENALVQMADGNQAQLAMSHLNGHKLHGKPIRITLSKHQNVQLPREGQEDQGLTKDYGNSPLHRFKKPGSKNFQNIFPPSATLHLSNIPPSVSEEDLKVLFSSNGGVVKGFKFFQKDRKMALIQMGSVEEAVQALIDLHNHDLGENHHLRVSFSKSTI

B1: CUG repeat RNA probe (structured_RNA)
RNA: GCCUGCUGCUGCUGCUGCUGCUGCUGCUGCUGGC
Take B1: the binding result with GST-MBNL1 (1-260) is “binds”.

B2: CHRNA1 polypyrimidine tract RNA probe (ssRNA)
RNA: UUUCUCCUUUUCUGUGGGUGGACAGGGUGACAUGGUA
For B2, in the data set with GST-PTBP1, the binding result is recorded as “binds”.
